Experimental data taken from the supplement of paper PMC11780869.

Tested on: Bacillus subtilis
Assay: cleaved RNA product abundance (RNA/gDNA barcode ratio) relative to median wild-type variant (ratio to wild type); higher = more accumulation of the downstream cleavage product
Details: cleavage site: cggR-gapA (positions -7 to +36 mutated)
Outline: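 Cleaved product abundance for each construct is its RNA-to-gDNA barcode ratio, scaled to the median construct carrying the unmutated site. Cleaved RNA was isolated on a gel, reverse transcribed and barcode-sequenced, with genomic DNA barcodes sequenced alongside and UMIs collapsed. The reporters were truncated aprE or tetM mRNAs with barcoded, mutagenized RNase Y cleavage-site windows integrated into the B. subtilis chromosome, and cultures grew in LB at 37°C from OD600 0.0003 to 0.3.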

[1] = experiment (reporter, strain, medium): exp 2b: truncated aprE reporter, strain BJT200
[2] = experiment (reporter, strain, medium): exp 4a: truncated aprE reporter, strain BJT201 with 2% xylose (RNase J1 expressed)

| Sequence | cleaved RNA product abundance [1] | cleaved RNA product abundance [2] | cleaved RNA product abundance (experiment (reporter, strain, medium): exp 6: tetM reporter, strain 168) |
| --- | --- | --- | --- |
| ACAGACGAAGGAGCCGCAAAGAAGTTATTAATGGATGAATAATCCCTCGATATAAATATCTCTCACTTATTTAAA | 0.0785 | 0.116 | – |
| ACAGACGAAGGAGCCGCAAAGAAGTTATTAATGGATGAATAATCCCTCTATATAAATATCTCTCACTTATTTAAA | – | 0.143 | – |
| ACAGACGAAGGAGCCGCAAAGAAGTTATTAATGGATGAATAATCCCTGAATATAAATATCTCTCACTTATTTAAA | 0.0961 | 0.133 | – |
| ACAGACGAAGGAGCCGCAAAGAAGTTATTAATGGATGAATAATCCCTTAATATAAATATCTCTCACTTATTTAAA | 0.806 | 0.625 | – |
| ACAGACGAAGGAGCCGCAAAGAAGTTATTAATGGATGAATAATCCTTCAATATAAATATCTCTCACTTATTTAAA | 0.212 | 0.191 | – |
| ACAGACGAAGGAGCCGCAAAGAAGTTATTAATGGATGAATAATCGCTCAATATAAATATCTCTCACTTATTTAAA | 0.077 | – | – |
| ACAGACGAAGGAGCCGCAAAGAAGTTATTAATGGATGAATAATCTCTCAATATAAATATCTCTCACTTATTTAAA | 0.108 | 0.14 | – |
| ACAGACGAAGGAGCCGCAAAGAAGTTATTAATGGATGAATAATGCCTCAATATAAATATCTCTCACTTATTTAAA | 0.0612 | 0.105 | – |
| ACAGACGAAGGAGCCGCAAAGAAGTTATTAATGGATGAATAATTCATCAATATAAATATCTCTCACTTATTTAAA | – | 0.316 | – |
| ACAGACGAAGGAGCCGCAAAGAAGTTATTAATGGATGAATAATTCCTCAATATAAATATCTCTCACTTATTTAAA | 0.0864 | 0.12 | – |
| ACAGACGAAGGAGCCGCAAAGAAGTTATTAATGGATGAATACTCCCTCAATATAAATATCTCTCACTTATTTAAA | – | 0.0655 | – |
| ACAGACGAAGGAGCCGCAAAGAAGTTATTAATGGATGAATAGTCCCTCAATATAAATATCTCTCACTTATTTAAA | 0.0972 | – | – |
| ACAGACGAAGGAGCCGCAAAGAAGTTATTAATGGATGAATATTCCCTCAATATAAATATCTCTCACTTATTTAAA | – | 0.107 | – |
| ACAGACGAAGGAGCCGCAAAGAAGTTATTAATGGATGAATCATCCCTCAATATAAATATCTCTCACTTATTTAAA | 0.122 | 0.189 | – |
| ACAGACGAAGGAGCCGCAAAGAAGTTATTAATGGATGAATGATCCCTCAATATAAATATCTCTCACTTATTTAAA | – | 0.113 | – |
| ACAGACGAAGGAGCCGCAAAGAAGTTATTAATGGATGAATTATCCCTCAATATAAATATCTCTCACTTATTTAAA | 0.112 | 0.0827 | – |
| ACAGACGAAGGAGCCGCAAAGAAGTTATTAATGGATGACTAATCCCTCAATATAAATATCTCTCACTTATTTAAA | 0.0938 | 0.114 | – |
| ACAGACGAAGGAGCCGCAAAGAAGTTATTAATGGATGATTAATCCCTCAATATAAATATCTCTCACTTATTTAAA | – | 0.138 | – |
| ACAGACGAAGGAGCCGCAAAGAAGTTATTAATGGATGCATAATCCCTCAATATAAATATCTCTCACTTATTTAAA | 0.133 | 0.169 | – |
| ACAGACGAAGGAGCCGCAAAGAAGTTATTAATGGATGGATAATCCCTCAATATAAATATCTCTCACTTATTTAAA | – | 0.143 | – |
| ACAGACGAAGGAGCCGCAAAGAAGTTATTAATGGATGTATAATCCCTCAATATAAATATCTCTCACTTATTTAAA | 0.0434 | 0.211 | – |
| ACAGACGAAGGAGCCGCAAAGAAGTTATTAATGGATTAATAATCCCTCAATATAAATATCTCTCACTTATTTAAA | 0.149 | 0.242 | – |

| Sequence | cleaved RNA product abundance [1] | cleaved RNA product abundance [2] | cleaved RNA product abundance (experiment (reporter, strain, medium): exp 6: tetM reporter, strain 168) |
| --- | --- | --- | --- |
| ACAGACGAAGGAGCCGCAAAGAAGTTATTAATGGCTGAATAATCCCTCAATATAAATATCTCTCACTTATTTAAA | 0.11 | 0.0644 | – |
| ACAGACGAAGGAGCCGCAAAGAAGTTATTAATGGGTGAATAATCCCTCAATATAAATATCTCTCACTTATTTAAA | – | 0.188 | – |
| ACAGACGAAGGAGCCGCAAAGAAGTTATTAATGGTTGAATAATCCCTCAATATAAATATCTCTCACTTATTTAAA | 0.107 | 0.121 | – |
| ACAGACGAAGGAGCCGCAAAGAAGTTATTAATGTATGAATAATCCCTCAATATAAATATCTCTCACTTATTTAAA | 0.101 | 0.1 | – |
| ACAGACGAAGGAGCCGCAAAGAAGTTATTAATTGATGAATAATCCCTCAATATAAATATCTCTCACTTATTTAAA | 0.0997 | 0.0964 | – |
| ACAGACGAAGGAGCCGCAAAGAAGTTATTACAGGATGAATAATCCCTCAATATAAATATCTCTCACTTATTTAAA | – | 0.165 | – |
| ACAGACGAAGGAGCCGCAAAGAAGTTATTACCGGATGAATAATCCCTCAATATAAATATCTCTCACTTATTTAAA | – | 0.155 | – |
| ACAGACGAAGGAGCCGCAAAGAAGTTATTACGAGATGAATAATCCCTCAATATAAATATCTCTCACTTATTTAAA | 0.104 | 0.113 | – |
| ACAGACGAAGGAGCCGCAAAGAAGTTATTACGCGATGAATAATCCCTCAATATAAATATCTCTCACTTATTTAAA | – | 0.0746 | – |
| ACAGACGAAGGAGCCGCAAAGAAGTTATTACGGAATGAATAATCCCTCAATATAAATATCTCTCACTTATTTAAA | 0.1 | 0.0966 | – |
| ACAGACGAAGGAGCCGCAAAGAAGTTATTACGGCATGAATAATCCCTCAATATAAATATCTCTCACTTATTTAAA | 0.0982 | 0.204 | – |
| ACAGACGAAGGAGCCGCAAAGAAGTTATTACGGGAAGAATAATCCCTCAATATAAATATCTCTCACTTATTTAAA | 0.152 | 0.322 | – |
| ACAGACGAAGGAGCCGCAAAGAAGTTATTACGGGATAAATAATCCCTCAATATAAATATCTCTCACTTATTTAAA | – | 0.416 | – |
| ACAGACGAAGGAGCCGCAAAGAAGTTATTACGGGATGAAAAATCCCTCAATATAAATATCTCTCACTTATTTAAA | 0.223 | 0.321 | – |
| ACAGACGAAGGAGCCGCAAAGAAGTTATTACGGGATGAATAAACCCTCAATATAAATATCTCTCACTTATTTAAA | – | 0.158 | – |
| ACAGACGAAGGAGCCGCAAAGAAGTTATTACGGGATGAATAAGCCCTCAATATAAATATCTCTCACTTATTTAAA | 0.189 | – | – |
| ACAGACGAAGGAGCCGCAAAGAAGTTATTACGGGATGAATAATACCTCAATATAAATATCTCTCACTTATTTAAA | – | 0.112 | – |
| ACAGACGAAGGAGCCGCAAAGAAGTTATTACGGGATGAATAATCACTCAATATAAATATCTCTCACTTATTTAAA | 0.108 | – | – |
| ACAGACGAAGGAGCCGCAAAGAAGTTATTACGGGATGAATAATCCCTAAATATAAATATCTCTCACTTATTTAAA | 0.428 | 0.394 | – |
| ACAGACGAAGGAGCCGCAAAGAAGTTATTACGGGATGAATAATCCCTCAATATAAATATCTCTCACTTATTTAAA | 0.32 | 0.46 | 0.453 |
| ACAGACGAAGGAGCCGCAAAGAAGTTATTACGGGATGAATAATCCCTCAATATAAATATTTCTCACTTATTTAAA | – | 0.399 | – |
| ACAGACGAAGGAGCCGCAAAGAAGTTATTACGGGATGAATAATCCCTCAATATAAATCTCTCTCACTTATTTAAA | – | 0.368 | – |
